Data set [1] addresses T1, RIG-I (human, UniProt O95786 1-925).
T1 sequence: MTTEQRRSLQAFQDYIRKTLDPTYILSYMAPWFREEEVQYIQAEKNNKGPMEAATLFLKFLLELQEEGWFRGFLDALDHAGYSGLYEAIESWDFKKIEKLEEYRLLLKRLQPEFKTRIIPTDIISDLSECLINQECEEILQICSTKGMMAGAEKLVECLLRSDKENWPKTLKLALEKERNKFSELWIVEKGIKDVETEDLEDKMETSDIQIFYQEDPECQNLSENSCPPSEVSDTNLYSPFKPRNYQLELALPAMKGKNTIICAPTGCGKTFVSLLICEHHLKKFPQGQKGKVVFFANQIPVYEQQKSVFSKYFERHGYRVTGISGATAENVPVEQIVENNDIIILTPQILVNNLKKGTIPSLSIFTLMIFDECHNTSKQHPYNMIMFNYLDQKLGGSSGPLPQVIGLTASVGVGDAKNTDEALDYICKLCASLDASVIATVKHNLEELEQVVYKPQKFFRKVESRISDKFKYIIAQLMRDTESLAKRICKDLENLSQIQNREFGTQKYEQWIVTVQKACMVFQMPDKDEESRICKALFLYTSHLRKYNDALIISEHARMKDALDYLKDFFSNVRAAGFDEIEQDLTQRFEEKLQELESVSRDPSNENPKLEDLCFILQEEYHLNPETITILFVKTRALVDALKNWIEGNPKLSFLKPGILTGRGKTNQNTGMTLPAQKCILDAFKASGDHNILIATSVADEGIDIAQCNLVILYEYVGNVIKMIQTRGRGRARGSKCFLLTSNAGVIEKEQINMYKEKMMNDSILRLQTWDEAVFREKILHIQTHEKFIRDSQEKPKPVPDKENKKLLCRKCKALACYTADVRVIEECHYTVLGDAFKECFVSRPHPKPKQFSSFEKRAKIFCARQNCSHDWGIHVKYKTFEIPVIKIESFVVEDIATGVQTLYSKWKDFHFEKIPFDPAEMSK
Description: EMSA. A general note: Mobility shift assays separate free from complexed probe on a gel.

Data set [2] concerns the target T1, RIG-I. In words: EMSA. The source holds these as a separate data set.

The results in this text go back to PMC5002451.

Read-outs that look alike come from different tables or passages of the source.

B1: 47R/25RI (dsRNA)
RNA 1: GGAAAAUGUAAAUGACAUAGGCGCGCUGAAAGGGAGAAGUGAAAGUG
RNA 2: CGCGCCUAUGUCAUUUACAUUUUCC
modifications: 5'-OH
Turning to B1, the binding result in the data set with RIG-I [1] was “binds”.

B2: 3P-47R/25DI (DNA:RNA)
RNA: B1 RNA 1
DNA: CACTTTCACTTCTCCCTTTCAGCGC
modifications: 5'-triphosphate (on 47R, implied by name)
Consider B2, for which the binding result with RIG-I [2] was “binds”.

B3: 3P-47R/25RI (dsRNA)
RNA 1: B1 RNA 1
RNA 2: CGCGCCUAUGUCAUUUACAUUUUCC
modifications: 5'-triphosphate (on 47R, implied by name)
As for B3, in the data set with RIG-I [2], the binding result was “binds”.
